PMC10183829, “Shuffled ATG8 interacting motifs form an ancestral bridge between UFMylation and autophagy” (The EMBO Journal, 2023)

T1: GST-ATG8A, Q8LEM4
T1 chain: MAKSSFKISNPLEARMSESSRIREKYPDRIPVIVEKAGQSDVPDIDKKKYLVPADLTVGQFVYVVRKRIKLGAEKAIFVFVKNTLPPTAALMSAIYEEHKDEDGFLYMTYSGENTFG


Experiments:
GST-ATG8A, Q8LEM4 = target: T1, GST-ATG8A, Q8LEM4; assay: microscopy-based protein-protein interaction assay (on-bead binding, confocal); conditions: chain shown with the change; 1 μM C53 protein; glutathione-sepharose beads with GST-ATG8A; parent: est. 1.0; read off a plot
[1] = target: GST-GABARAP (human), O95166; assay: microscopy-based on-bead protein-protein interaction assay; conditions: remark: other sources report otherwise
Chain of GST-GABARAP (human), O95166 (O95166 whole entry): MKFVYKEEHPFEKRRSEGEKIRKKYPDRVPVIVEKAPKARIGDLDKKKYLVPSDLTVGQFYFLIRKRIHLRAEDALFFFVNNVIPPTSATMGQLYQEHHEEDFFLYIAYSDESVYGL

| Binder | response (normalized fluorescence) (GST-ATG8A, Q8LEM4) | percent less recruited than the wild type [1] [%] |
| --- | --- | --- |
| mCh-HsC53, Q96JB5 IDWG267WDGI; IDWG292WDGI; IDWG310WDGI (protein) MEDHQHVPIDIQTSKLLDWLVDRRHCSLKWQSLVLTIREKINAAIQDMPESEEIAQLLSGSYIHYFHCLRILDLLKGTEASTKNIFGRYSSQRMKDWQEIIALYEKDNTYLVELSSLLVRNVNYEIPSLKKQIAKCQQLQQEYSRKEEECQAGAAEMREQFYHSCKQYGITGENVRGELLALVKDLPSQLAEIGAAAQQSLGEAIDVYQASVGFVCESPTEQVLPMLRFVQKRGNSTVYEWRTGTEPSVVERPHLEELPEQVAEDAWDGIDFGVEAVSEGTDSGISAEAAGWDGIIFPESDSKDPGGDGWDGIDDAVALQITVLEAGTQAPEGVARGPDALTLLEYTETRNQFLDELMELEIFLAQRAVELSEEADVLSVSQFQLAPAILQGQTKEKMVTMVSVLEDLIGKLTSLQLQHLFMILASPRYVDRVTEFLQQKLKQSQLLALKKELMVQKQQEALEEQAALEPKLDLLLEKTKELQKLIEADISKRYSGRPVNLMGTSL | 1.2 |  |
| mCh-HsC53^sAIM (W269A, W294A, W312A), Q96JB5 1-506 (natural protein) MEDHQHVPIDIQTSKLLDWLVDRRHCSLKWQSLVLTIREKINAAIQDMPESEEIAQLLSGSYIHYFHCLRILDLLKGTEASTKNIFGRYSSQRMKDWQEIIALYEKDNTYLVELSSLLVRNVNYEIPSLKKQIAKCQQLQQEYSRKEEECQAGAAEMREQFYHSCKQYGITGENVRGELLALVKDLPSQLAEIGAAAQQSLGEAIDVYQASVGFVCESPTEQVLPMLRFVQKRGNSTVYEWRTGTEPSVVERPHLEELPEQVAEDAIDAGDFGVEAVSEGTDSGISAEAAGIDAGIFPESDSKDPGGDGIDAGDDAVALQITVLEAGTQAPEGVARGPDALTLLEYTETRNQFLDELMELEIFLAQRAVELSEEADVLSVSQFQLAPAILQGQTKEKMVTMVSVLEDLIGKLTSLQLQHLFMILASPRYVDRVTEFLQQKLKQSQLLALKKELMVQKQQEALEEQAALEPKLDLLLEKTKELQKLIEADISKRYSGRPVNLMGTSL |  | 78 |
